Experimental data as given in patent publication US20240261333A1 (published 2024).

Target: T1, CD276, endogenous in A375 melanoma cells (human, UniProt Q5ZPR3 29-534, poly-LacNAc glycosylation added by B3GNT2 (sites not given))
T1 construct: whole, on cells; On fixed A375 cells in flow cytometry; In the co-IP it comes from the lysate of these cells; also called B7H3
T1 sequence (looked up): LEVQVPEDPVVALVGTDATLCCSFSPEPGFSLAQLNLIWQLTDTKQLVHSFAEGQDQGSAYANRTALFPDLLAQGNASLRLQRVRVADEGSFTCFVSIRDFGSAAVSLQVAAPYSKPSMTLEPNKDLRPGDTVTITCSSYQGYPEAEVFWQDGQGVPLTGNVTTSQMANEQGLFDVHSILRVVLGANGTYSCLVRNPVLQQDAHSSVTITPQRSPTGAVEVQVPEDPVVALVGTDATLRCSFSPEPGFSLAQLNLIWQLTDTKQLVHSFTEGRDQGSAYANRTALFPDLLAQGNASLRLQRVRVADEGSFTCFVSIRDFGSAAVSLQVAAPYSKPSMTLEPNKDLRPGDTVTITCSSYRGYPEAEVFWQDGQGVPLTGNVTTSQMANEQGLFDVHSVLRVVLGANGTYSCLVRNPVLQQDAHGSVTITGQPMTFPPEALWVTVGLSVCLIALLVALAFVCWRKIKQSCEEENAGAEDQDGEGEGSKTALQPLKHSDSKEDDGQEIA
Experiment: flow cytometry of TREML2 Fc chimera on fixed A375 cells with CD276 knocked down by CRISPR

binding result: no binding (tested: 25 µg/mL)
B1: TREML2 recombinant Fc chimera protein (R&D Systems 3259-TL-050) (Fc fusion, UniProt Q5T2D2 19-268, looked up)
chain: GPSADSVYTKVRLLEGETLSVQCSYKGYKNRVEGKVWCKIRKKKCEPGFARVWVKGPRYLLQDDAQAKVVNITMVALKLQDSGRYWCMRNTSGILYPLMGFQLDVSPAPQTERNIPFTHLDNILKSGTVTTGQAPTSGPDAPFTTGVMVFTPGLITLPRLLASTRPASKTGYSFTATSTTSQGPRRTMGSQTVTASPSNARDSSAGPESISTKSGDLSTRSPTTGLCLTSRSLLNRLPSMPSIRHQDVYS
notes: Bought reagent; also called TLT2; Fc part of the bought chimera not given
